These results are taken from ChEMBL document CHEMBL2074257, “Expression cloning of a Na+-independent aromatic amino acid transporter with structural similarity to H+/monocarboxylate transporters” (J Biol Chem, 2001).

One may read the Ki as a measure of affinity in units of concentration, obtained from inhibition or displacement. By Km is commonly meant the substrate concentration at which the rate is half of its maximum.

The target in data set [1] is T1, Monocarboxylate transporter 10 (Rattus norvegicus, UniProt Q91Y77).
T1 sequence (Q91Y77 whole entry): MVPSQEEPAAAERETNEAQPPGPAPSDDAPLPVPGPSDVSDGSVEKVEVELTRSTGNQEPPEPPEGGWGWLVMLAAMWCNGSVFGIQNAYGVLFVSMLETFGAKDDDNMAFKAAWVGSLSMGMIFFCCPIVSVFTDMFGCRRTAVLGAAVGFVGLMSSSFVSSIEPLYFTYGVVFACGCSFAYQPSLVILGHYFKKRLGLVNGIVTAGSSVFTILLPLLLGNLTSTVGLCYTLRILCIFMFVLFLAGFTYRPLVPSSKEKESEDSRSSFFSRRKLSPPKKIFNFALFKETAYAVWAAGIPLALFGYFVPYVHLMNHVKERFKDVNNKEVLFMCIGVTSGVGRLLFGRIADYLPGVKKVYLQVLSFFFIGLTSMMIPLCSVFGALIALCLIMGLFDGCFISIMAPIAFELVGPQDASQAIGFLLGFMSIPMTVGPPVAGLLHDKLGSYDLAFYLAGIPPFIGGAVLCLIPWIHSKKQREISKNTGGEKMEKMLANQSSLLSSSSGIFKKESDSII
Description: TP_TRANSPORTER: inhibition of L-tryptophan uptake in Xenopus laevis oocytes. The class given is functional, cell-based, Oocyte.

Substrate in data set [2]: N[C@@H](Cc1ccccc1)C(=O)O
The note with it: Xenopus laevis; Oocyte.

Substrate in data set [3]: N[C@@H](Cc1c[nH]c2ccccc12)C(=O)O
The conditions noted are these: Xenopus laevis; Oocyte.

Substrate in data set [4]: N[C@@H](Cc1ccc(O)c(O)c1)C(=O)O
The note with it: Xenopus laevis; Oocyte.

Substrate in data set [5]: N[C@@H](Cc1ccc(O)cc1)C(=O)O
The conditions noted are these: Xenopus laevis; Oocyte.

As to `CC(=O)N[C@@H](Cc1c[nH]c2ccccc12)C(=O)O` [ACETYLTRYPTOPHAN], in data set [1], the inhibitory constant (Ki) is 1500 µM.

Turning to `CN[C@@H](Cc1c[nH]c2ccccc12)C(=O)O` [ABRINE], the Ki in data set [1] came out at 3100 µM.

B1: Monocarboxylate transporter 10 (Rattus norvegicus), Q91Y77 (protein)
chain: MVPSQEEPAAAERETNEAQPPGPAPSDDAPLPVPGPSDVSDGSVEKVEVELTRSTGNQEPPEPPEGGWGWLVMLAAMWCNGSVFGIQNAYGVLFVSMLETFGAKDDDNMAFKAAWVGSLSMGMIFFCCPIVSVFTDMFGCRRTAVLGAAVGFVGLMSSSFVSSIEPLYFTYGVVFACGCSFAYQPSLVILGHYFKKRLGLVNGIVTAGSSVFTILLPLLLGNLTSTVGLCYTLRILCIFMFVLFLAGFTYRPLVPSSKEKESEDSRSSFFSRRKLSPPKKIFNFALFKETAYAVWAAGIPLALFGYFVPYVHLMNHVKERFKDVNNKEVLFMCIGVTSGVGRLLFGRIADYLPGVKKVYLQVLSFFFIGLTSMMIPLCSVFGALIALCLIMGLFDGCFISIMAPIAFELVGPQDASQAIGFLLGFMSIPMTVGPPVAGLLHDKLGSYDLAFYLAGIPPFIGGAVLCLIPWIHSKKQREISKNTGGEKMEKMLANQSSLLSSSSGIFKKESDSII
Take B1: the Michaelis constant (Km) in data set [2] stood at 7.02 mM; in data set [3], 3.72 mM; in data set [4] it was 6.43 mM; in data set [5], 2.59 mM.
